± gives the uncertainty stated by the source.
Test: self-splicing fitness, log relative to wild type (ln ratio); higher = more splicing; Tetrahymena group I intron in knt gene, E. coli kanamycin selection, DiMSum; sequences stand for … in CUCUCU…GGAGGGAAAAGUUAUCAGGCAUGCACCUGGUAGCUAGUCUUUAAACCAAUAGAUUGCAUCGGUUUAAAAGGCAAGACCGUCAAAUUGCGGGAAAGGGGUCAACAGCCGUUCAGUACCAAGUCUCAGGGGAAACUUUGAGAUGGCCUUGCAAAGGGUAUGGUAAUAAGCUGACGGACAUGGUCCUAACCACGCAGCCAAGUCCUAAGUCAACAGAUCUUCUGUUGAUAUGGAUGCAGUUCACAGACUAAAUGUCGGUCGGGGAAGAUGUAUUCUUCUCAUAAGAUAUAGUCGGACCUCUCCUUAAUGGGAGCUAGCGGAUGAAGUGAUGCAACACUGGAGCCGCUGGGAACUAAUUUGUAUGCGAAAGUAUAUUGAUUAGUUUUGGAGUACUCGUGGUCG
Summary of the method: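 Pooled colonies went to amplicon sequencing on an Illumina HiSeq 2500 after six replicate transformations. The plates were LB agar with 100 μg/mL carbenicillin, 50 μM IPTG and 0.2% rhamnose, with or without 25 μg/mL kanamycin, incubated overnight at 37°C or 30°C. The E. coli BL21(DE3) library had all eight P1ex-region intron nucleotides randomised, the intron placed in the knt kanamycin-resistance gene on pET-22b(+). DiMSum fitness is the error-weighted combination of replicate fold changes, kanamycin against none, normalised to wild type.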

| Sequence | self-splicing fitness (ln) (30 °C) | self-splicing fitness (ln) (37 °C) |
| --- | --- | --- |
| CUGAAGCAAUAUUACGCAUA | -3.91 ± 0.3 | -2.57 ± 0.32 |
| CUGAAGCAAUAUUACGCGCC | -3.07 ± 0.31 | – |
| CUGAAGCAAUAUUACGCGUU | -3.36 ± 0.18 | -2.86 ± 0.24 |
| CUGAAGCAAUAUUACGCUCC | -2.74 ± 0.34 | – |
| CUGAAGCAAUAUUACGCUGA | -3.66 ± 0.24 | -3.28 ± 0.43 |
| CUGAAGCAAUAUUACGGGCU | -3.56 ± 0.17 | -3.15 ± 0.21 |
| CUGAAGCAAUAUUACGGGGU | -3.34 ± 0.24 | -0.289 ± 0.17 |
| CUGAAGCAAUAUUACGGGUA | -3.21 ± 0.15 | -3.96 ± 0.42 |
| CUGAAGCAAUAUUACGGGUC | -3.92 ± 0.4 | – |
| CUGAAGCAAUAUUACGGGUG | -0.0462 ± 0.047 | 0.304 ± 0.071 |
| CUGAAGCAAUAUUACGGUUA | -4.2 ± 0.35 | -2.52 ± 0.28 |
| CUGAAGCAAUAUUACGUACG | 0.694 ± 0.073 | 0.514 ± 0.09 |
| CUGAAGCAAUAUUACGUCGU | -3.23 ± 0.26 | -1.79 ± 0.21 |
| CUGAAGCAAUAUUACGUCUG | 0.302 ± 0.069 | 0.352 ± 0.08 |
| CUGAAGCAAUAUUACGUGGG | -2.66 ± 0.095 | -1.89 ± 0.11 |
| CUGAAGCAAUAUUACGUGUC | -2.53 ± 0.14 | -2.81 ± 0.28 |
| CUGAAGCAAUAUUACGUUAU | -4.59 ± 0.23 | -3.63 ± 0.37 |
| CUGAAGCAAUAUUACGUUCA | -1.87 ± 0.11 | -0.567 ± 0.12 |
| CUGAAGCAAUAUUACGUUCG | 0.231 ± 0.06 | -0.181 ± 0.082 |
| CUGCAGCAAUAUUACGAAAA | – | -2.19 ± 0.31 |
| CUGCAGCAAUAUUACGAAAC | – | -1.87 ± 0.37 |
| CUGCAGCAAUAUUACGAAAG | -1.42 ± 0.14 | -1.47 ± 0.15 |
| CUGCAGCAAUAUUACGCAAG | -2.58 ± 0.18 | -2.83 ± 0.44 |
| CUGCAGCAAUAUUACGCCUU | -2.87 ± 0.15 | -2.94 ± 0.29 |
| CUGCAGCAAUAUUACGCGUG | -1.92 ± 0.12 | -1.67 ± 0.16 |
| CUGCAGCAAUAUUACGGAGG | -2.5 ± 0.13 | -2.03 ± 0.21 |

| Sequence | self-splicing fitness (ln) (30 °C) | self-splicing fitness (ln) (37 °C) |
| --- | --- | --- |
| CUGCAGCAAUAUUACGGGCC | – | -1.2 ± 0.5 |
| CUGCAGCAAUAUUACGGGGC | -3.94 ± 0.22 | -1.83 ± 0.18 |
| CUGCAGCAAUAUUACGGGGU | -4.93 ± 0.45 | -2.73 ± 0.2 |
| CUGCAGCAAUAUUACGUAUC | -4.37 ± 0.19 | -2.73 ± 0.18 |
| CUGCAGCAAUAUUACGUCAA | -3.08 ± 0.17 | -1.47 ± 0.12 |
| CUGCAGCAAUAUUACGUCUG | -2.34 ± 0.16 | -0.738 ± 0.17 |
| CUGCAGCAAUAUUACGUGCA | -2.38 ± 0.13 | -0.522 ± 0.1 |
| CUGCAGCAAUAUUACGUGGG | -4.18 ± 0.18 | -3 ± 0.13 |
| CUGCAGCAAUAUUACGUUUC | -3.11 ± 0.14 | -3.1 ± 0.25 |
| CUGGAGCAAUAUUACGAAAA | -2.86 ± 0.25 | -1.6 ± 0.22 |
| CUGGAGCAAUAUUACGCCUU | – | -1.6 ± 0.43 |
| CUGGAGCAAUAUUACGCGGU | -1.94 ± 0.1 | -2.46 ± 0.24 |
| CUGGAGCAAUAUUACGCGUA | – | -2.81 ± 0.43 |
| CUGGAGCAAUAUUACGCUAU | -3.45 ± 0.38 | -2.67 ± 0.38 |
| CUGGAGCAAUAUUACGGCGU | -2.77 ± 0.18 | – |
| CUGGAGCAAUAUUACGGCUU | -4.3 ± 0.42 | -2.68 ± 0.33 |
| CUGGAGCAAUAUUACGGUCU | -4.34 ± 0.32 | -2.38 ± 0.29 |
| CUGGAGCAAUAUUACGGUUU | -2.21 ± 0.15 | -2.43 ± 0.26 |
| CUGGAGCAAUAUUACGUCAU | -4.18 ± 0.25 | -3.19 ± 0.4 |
| CUGGAGCAAUAUUACGUGCA | -3.46 ± 0.41 | – |
| CUGUAGCAAUAUUACGAACG | 0.0721 ± 0.084 | 0.403 ± 0.1 |
| CUGUAGCAAUAUUACGAAGA | – | -2.29 ± 0.29 |
| CUGUAGCAAUAUUACGAAGG | -1.83 ± 0.21 | -2.22 ± 0.3 |
| CUGUAGCAAUAUUACGACGG | -2.64 ± 0.23 | -1.07 ± 0.42 |
| CUGUAGCAAUAUUACGAUAA | -3.19 ± 0.38 | -1.72 ± 0.27 |

From the supplement of paper PMC7877785
